Experimental data reported in publication PMC2615625.

Key:
NM23-H2 wild type [1] = target: T1, NM23-H2 wild type (UniProt P22392 1-152); assay: EMSA with FRET detection
NM23-H2 K12A = NM23-H2 K12A (UniProt P22392 1-152, K12A); assay: EMSA with FRET detection
NM23-H2 H118C = NM23-H2 H118C (UniProt P22392 1-152, H118C); assay: EMSA with FRET detection
NM23-H2 wild type [2] = target: T1, NM23-H2 wild type; assay: EMSA

T1 sequence (P22392 whole entry): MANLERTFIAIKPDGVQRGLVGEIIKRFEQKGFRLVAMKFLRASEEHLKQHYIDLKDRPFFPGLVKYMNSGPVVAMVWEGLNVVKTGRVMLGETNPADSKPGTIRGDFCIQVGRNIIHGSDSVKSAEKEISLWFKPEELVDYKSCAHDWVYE
NM23-H2 K12A, sequence (P22392 whole entry K12A): as the sequence (P22392 whole entry) above, with K12A counted along it
NM23-H2 H118C, sequence (P22392 whole entry H118C): as the sequence (P22392 whole entry) above, with H118C counted along it

TGGGGAGGGTGGGGAGGGTGGGGAAGG (structured_DNA) [FG27T]
binding result (NM23-H2 wild type [1]): binds
binding result (NM23-H2 K12A): binds
binding result (NM23-H2 H118C): binds

TGGGGAGGGTGGGGAGGGTGGGGAAGG (structured_DNA) [c-MYC NHE G4 27-mer]
binding result (NM23-H2 wild type [2]): binds
